Measurements: paper PMC4918310

Target: untagged recombinant mouse TWEAK (mouse) (UniProt O54907)
Sequence of UniProt O54907 (O54907 94-249): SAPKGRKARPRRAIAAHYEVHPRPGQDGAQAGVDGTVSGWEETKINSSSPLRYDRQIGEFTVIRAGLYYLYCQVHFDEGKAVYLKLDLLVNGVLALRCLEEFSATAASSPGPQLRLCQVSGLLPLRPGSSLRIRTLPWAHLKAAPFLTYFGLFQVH

- TWEAK (200 ng ml^-1)-induced canonical and non-canonical NF-kB signalling in mouse endothelial cells (MDEC), immunoblotting, with increasing doses of recombinant mouse sCD163: 50
Substance: recombinant mouse sCD163 (receptor)
